Where only a bound is given, the exact number is not on record here.

For one substance, relative Kd (against the wild type p53-like peptide) results are on record in PMC10773984.

Test [1] concerns the target p53-like peptide W23A, displayed on E. coli. Description: flow cytometry on cells. Background: Flow cytometry measures light scatter and fluorescence of single cells or particles in a stream.
For test [2], the target named is p53-like peptide F19A, displayed on E. coli. Description: flow cytometry on cells.

As to “Mdm2-GST (from UniProt Q00987 1-491) (natural protein)”, the relative Kd (against the wild type p53-like peptide) in test [1] and in test [2] was greater than 10000 in each case.
